Test results as given in patent publication US20210063414A1, “METHODS FOR PREVENTING AND/OR TREATING BONE LOSS CONDITIONS BY MODULATING IRISIN” (Dana-Farber Cancer Institute, Inc., priority 2018, published 2021).

Experiments:
Experiment in all cases: Crosslinking/co-immunoprecipitation/mass spectrometry (TMT quantitative proteomics) to identify irisin receptors
Type in all cases: binding
[1] = target: T1, MLO-Y4 cell surface proteins (Mus musculus, UniProt P09671); conditions: co-precipitated protein Sod2 (SODM_MOUSE)
T1 construct: endogenous in cells; host or cells: MLO-Y4
T1 sequence (P09671 25-222): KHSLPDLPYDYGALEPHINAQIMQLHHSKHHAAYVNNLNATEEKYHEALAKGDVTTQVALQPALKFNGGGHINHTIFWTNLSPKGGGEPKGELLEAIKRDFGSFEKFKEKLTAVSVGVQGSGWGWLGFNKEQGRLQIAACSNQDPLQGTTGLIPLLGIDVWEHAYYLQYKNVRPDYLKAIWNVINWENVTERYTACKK
Procedure, shortened: (§1)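 Mouse MLO-Y4 cells were switched to serum-free FreeStyle medium for 4 h, chilled, then exposed to 10 nM His-tagged irisin (or adipsin as control) for 20 min. Cells were crosslinked with 1.5 mM DTSSP (30 min, ice), and bound proteins were pulled down on Ni-NTA and eluted with 250 mM imidazole. Eluates were separated by SDS-PAGE, trypsin-digested in gel, TMT 6-plex labelled and quantified by MS3-based LC-MS/MS on an Orbitrap Fusion Lumos.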

[2] = target: T2, MLO-Y4 cell surface proteins (Mus musculus, UniProt Q99KR7); conditions: co-precipitated protein Ppif (PPIF_MOUSE)
T2 construct: endogenous in cells; host or cells: MLO-Y4
Procedure, shortened: as §1

[3] = target: T3, MLO-Y4 cell surface proteins (Mus musculus, UniProt P39654); conditions: co-precipitated protein Alox15 (LOX15_MOUSE)
T3 construct: endogenous in cells; host or cells: MLO-Y4
T3 sequence (P39654 1-663): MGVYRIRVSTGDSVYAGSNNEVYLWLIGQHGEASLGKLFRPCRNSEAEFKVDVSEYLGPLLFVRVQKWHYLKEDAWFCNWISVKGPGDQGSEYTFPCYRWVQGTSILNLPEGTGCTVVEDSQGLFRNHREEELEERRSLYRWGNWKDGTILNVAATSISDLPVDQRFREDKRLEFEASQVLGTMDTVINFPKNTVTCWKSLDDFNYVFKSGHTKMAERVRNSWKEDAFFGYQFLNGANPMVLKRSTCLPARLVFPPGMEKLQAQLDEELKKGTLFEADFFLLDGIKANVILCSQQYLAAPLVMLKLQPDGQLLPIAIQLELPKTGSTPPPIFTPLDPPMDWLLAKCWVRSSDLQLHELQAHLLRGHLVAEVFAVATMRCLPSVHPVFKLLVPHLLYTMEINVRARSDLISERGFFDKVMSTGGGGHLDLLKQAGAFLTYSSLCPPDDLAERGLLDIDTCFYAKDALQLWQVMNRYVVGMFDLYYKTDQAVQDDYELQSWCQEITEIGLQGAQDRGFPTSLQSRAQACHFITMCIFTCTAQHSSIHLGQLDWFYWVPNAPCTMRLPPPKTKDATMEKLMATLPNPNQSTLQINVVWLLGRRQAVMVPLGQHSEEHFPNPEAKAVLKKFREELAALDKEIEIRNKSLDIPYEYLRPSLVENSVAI
Procedure, shortened: as §1

[4] = target: T4, MLO-Y4 cell surface proteins (Mus musculus, UniProt Q8VCI5); conditions: co-precipitated protein Pex19 (PEX19_MOUSE)
T4 construct: endogenous in cells; host or cells: MLO-Y4
T4 sequence (Q8VCI5 1-299): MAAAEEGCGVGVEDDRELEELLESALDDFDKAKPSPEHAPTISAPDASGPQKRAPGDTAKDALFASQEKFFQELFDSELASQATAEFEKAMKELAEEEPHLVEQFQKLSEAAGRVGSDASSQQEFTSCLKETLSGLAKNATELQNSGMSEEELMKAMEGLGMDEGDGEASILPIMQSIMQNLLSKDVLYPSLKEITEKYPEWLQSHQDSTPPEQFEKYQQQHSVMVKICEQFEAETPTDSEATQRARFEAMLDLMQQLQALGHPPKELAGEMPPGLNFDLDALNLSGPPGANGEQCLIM
Procedure, shortened: as §1

T2 sequence (Q99KR7 30-206): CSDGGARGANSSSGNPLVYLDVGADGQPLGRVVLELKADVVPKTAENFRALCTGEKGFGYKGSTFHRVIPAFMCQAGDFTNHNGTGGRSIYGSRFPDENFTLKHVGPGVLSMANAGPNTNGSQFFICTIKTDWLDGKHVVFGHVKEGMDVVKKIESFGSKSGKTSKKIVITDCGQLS

TMT signal-to-noise ratio [1]: 1031.93
TMT signal-to-noise ratio [2]: 249.839
TMT signal-to-noise ratio [3]: 141.336
TMT signal-to-noise ratio [4]: 60.4801
Substance: adipsin
